Results published in article PMC6802930.

How the values were obtained:
[1] = molecular target: ^HAβ3 (rat GABAA receptor β3 subunit with a triple HA tag) (rat) (UniProt P63079)
[2] = molecular target: ^HAβ3 (rat GABAA receptor β3 subunit with a triple HA tag) (rat) (UniProt P63079); remark: listed apart in the source
[3] = molecular target: ^HAβ3 (rat GABAA receptor β3 subunit with a triple HA tag) (rat) (UniProt P63079); remark: listed apart in the source
[4] = molecular target: ^HAβ3/θIC chimera (EC and TM domains from β3, intracellular domain from θ) (rat)
[5] = molecular target: ^HAβ3/θIC chimera (EC and TM domains from β3, intracellular domain from θ) (rat); remark: listed apart in the source
[6] = molecular target: ^HAβ3/θIC chimera (EC and TM domains from β3, intracellular domain from θ) (rat); remark: listed apart in the source

Substance “^HAβ3 (rat GABAA receptor β3 subunit with a triple HA tag) (from UniProt P63079 26-473)” has a peak whole-cell current evoked by 3 mM histamine, HEK293 cells transfected with ^HAβ3 alone (patch clamp, -80 mV) [1] of 404 pA.
In the case of “^zβ3Q64E (mutant β3 subunit with higher affinity for histamine) (from UniProt P63079 26-473) (receptor)”, the share of the low-affinity component in the bimodal histamine concentration-response curve (10 μM to 10 mM), whole-cell patch clamp, HEK293 cells co-transfected with ^zβ3Q64E and ^HAβ3 (% of the total curve fit) [2] is reported as 85.
In the case of “rat GABAA receptor α3 subunit (untagged) (from UniProt P20236 29-493)”, the histamine (3 mM) potentiation of the response to 1 mM GABA, whole-cell patch clamp, HEK293 cells co-transfected with α3 and ^HAβ3 [3] is reported as 2.93 fold, the peak whole-cell current evoked by 1 mM GABA, HEK293 cells co-transfected with α3 and ^HAβ3/θIC (patch clamp) [4] is reported as 803 pA and the anti-HA surface immunofluorescence intensity of non-permeabilized HEK293 cells co-transfected with α3 and ^HAβ3/θIC (the chimera alone is rarely on the surface) [5] is reported as 14 AU.
For “rat GABAA receptor β3 subunit (untagged) (from UniProt P63079 26-473)”, the anti-HA surface immunofluorescence intensity of non-permeabilized HEK293 cells co-transfected with untagged β3 and ^HAβ3/θIC (the chimera alone is rarely on the surface) [6] was 9.9 AU.
